Results as given in patent publication US20040030097A1, “Peptide mimetics” (priority 2000, published 2004).

How the values were obtained:
[1] = test system: cell proliferation; conditions: EPO, read-out: EC50 (concentration for half maximal response); cited from earlier work
[2] = Far UV circular dichroism, helical content; format: physicochemical; conditions: far UV CD, 278 K, 15 μM peptide, from ellipticity at 222 nm
Protocol: The far UV CD spectra of the peptide was recorded, on a Jasco-710 instrument, at 278 K, in a cuvette with a 2 mm path. Measurements were made every 0.1 nm, with a response time of 2 s and a bandwidth of 1 nm, at a scan speed of 50 nm/min. The spectra shown in the text represent an average over 20 scans. The peptide concentration, calculated from the absorbance at 280 nm (Pace et al., 1995) was 15 μM. The helical percentage was calculated from the mean residue ellipticity at 222 nm, taking into account the peptide length (Chen et al., 1974), according to the following:
where n is the number of residues in the peptide and θ^obs222 nm is the ellipticity of the peptide at 222 nm. The CD experiments were carried out using the same buffer conditions as in the surface plasmon resonance assays.
(§1) A helical content of 34% was calculated as described above was. […] (FIG. 5).

[3] = Temperature denaturation monitored by CD at 222 nm; format: physicochemical
Protocol: The thermal denaturation was measured by monitoring the change in signal at 222 nm over a temperature range of 5-80° C., in a cuvette with a 2 mm path. Measurements were made in 0.5 degrees increments, with a response time of 2 s and a bandwidth of 1 nm, at a temperature slope of 50° C./h. The peptide concentration calculated from the absorbance at 280 nm was 15 μM (Pace et al., 1995).
as §1

[4] = target: T1, IL-4Rα (recombinant extracellular domain of the receptor α-chain [C182A,Q206C]-IL4-BP) (Homo sapiens, UniProt P24394, C207A/Q231C); assay: Surface plasmon resonance binding assay (BIAcore 2000) with immobilized IL-4Rα; conditions: 25° C., HBS buffer, physiological salt concentration
T1 construct: A recombinant extracellular domain of the receptor α-chain [C182A,Q206C]-IL4-BP was immobilized
Protocol: The binding affinities of the designed peptide mimetics were measured by surface plasmon resonance using a BIAcore 2000 (Pharmacia Biosensor AB). A recombinant extracellular domain of the receptor α-chain [C182A,Q206C]-IL4-BP was immobilized at a biosensor CM5 to a density of 1500 to 2000 pg/mm^2, as described by Shen et al. (Shen et al., 1996). Ligand binding was analyzed at 25° C. by perfusion with HBS buffer (10 mM Hepes, pH 7.4/150 mM NaCl/3.4 mM EDTA/0.005% surfactant P20) at a flow rate of 50 μl/min.

[5] = test system: HeLa cells; assay: Toxicity experiments with HeLa cells; format: cell-based

T1 sequence (P24394 26-232 C207A/Q231C): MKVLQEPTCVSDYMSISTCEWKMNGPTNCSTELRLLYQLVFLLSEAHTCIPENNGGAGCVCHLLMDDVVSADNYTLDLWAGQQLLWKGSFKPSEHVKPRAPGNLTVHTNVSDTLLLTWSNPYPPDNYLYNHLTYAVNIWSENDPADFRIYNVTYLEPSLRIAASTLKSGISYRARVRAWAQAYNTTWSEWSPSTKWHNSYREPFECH

Question: For EPO: cytokine erythropoietin, which EC50 [1] is on record?
Answer: 0.02 nM

Question: With “solup10: 45-residue ROP-derived mini-protein containing the IL-4 binding site: MGTDIQRYERAQTLALLEKLNELDADKQADRLRKRLARNDWLFGS” as the substance, how does the helical content [2] read?
Answer: 34%

Question: What about the “reversibility of temperature-induced denaturation” value ([3]; 5-80° C., CD signal recovered upon cooling from 80 to 5° C.) of the same substance?
Answer: reversible process

Question: What about the “loss of helical content at assay temperature” value ([3]; 25° C.) of the same substance?
Answer: lost half of its helical content

Question: And the Kd [4]?
Answer: 40 µM

Question: And the “toxicity to mammalian cells in combination with IL-4” value ([5]; in combination with IL-4 at concentrations of up to 500 μM)?
Answer: non-toxic

Question: And the “concentration up to which non-toxic to mammalian cells” value ([5]; solup10 alone)?
Answer: ≥ 500 µM
